Results published in publication PMC9528458.

Target: Fzd of the reconstituted xWnt8-Fzd complexes (Fzd4 and FZD5) in nanodiscs

B1: Xenopus laevis Wnt8 (ligand)
chain: AWSVNNFLMTGPKAYLTYSASVAVGAQNGIEECKYQFAWERWNCPESTLQLATHNGLRSATRETSFVHAISSAGVMYTLTRNCSMGDFDNCGCDDSRNGRIGGRGWVWGGCSDNAEFGERISKLFVDGLETGQDARALMNLHNNEAGRLAVKETMKRTCKCHGISGSCSIQTCWLQLAEFRDIGNHLKIKHDQALKLEMDKRKMRSGNSADNRGAIADAFSSVAGSELIFLEDSPDYCLKNISLGLQGTEGRECLQSGKNLSQWERRSCKRLCTDCGLRVEEKKTEIISSCNCKFHWCCTVKCEQCKQVVIKHFCARRERDSNMLNTKRKNRGHRR
occupancy (percent Wnt-bound Fzd after reconstitution): 30 to 40%
